Measured values from patent US11708565B2, “HPPD variants and methods of use” (BASF AGRICULTURAL SOLUTIONS SEED US LLC, priority 2017, dated 2023).
Changes are numbered by the printed parent chain. Names may count otherwise.

Columns and labels:
E. coli = experiment: Brown Color Assay (cell-based colorimetric assay of HPPD activity and tolerance to HPPD inhibitors); conditions: in the presence of 1 mM Cmpd. 1; for brown color formation: read at 440 nm
Method: A specific, although non-limiting, type of assay that can be used to evaluate the HPPD sequences of the invention is a colorimetric assay. In this assay, a YT-broth-type culture medium with 1% agarose, 5 mM L-Tyrosine and 42 mM Succinate, which contains the selection agent for the vector pSE420 (Invitrogen, Karlsruhe, Germany) or a modified version of pSE420 (pSE420(RI)NX) is poured into deep well plates. E. coli culture in the exponential growth phase which contains the vector pSE420-HPPDx (HPPDx means any gene coding for a putative HPPD enzyme/protein) is applied to each well.
Confirmation of activity by Brown Color Assay: To confirm that the designated hits retain HPPD activity and are tolerant to HPPD inhibitors, a cell-based colorimetric assay was employed. Wild-type E. coli strains lack the HPPD pathway; therefore expressing an HPPD enzyme in the presence of the substrate hydroxyphenylpyruvate (HPP) leads to the accumulation of the product, homogentisate (HGA). HGA is, in turn, auto-oxidized to a brown pigment, pyomelanin, which can be read at 440 nm. When cells are grown in the presence of an herbicide, brown color formation is inhibited with no effect on cell growth. The pRANGER vector is a low-copy, broad host range vector that allows some expression in E. coli.

Thorne soybean plants = experiment: Greenhouse herbicide spray application on T0 soybean plants; format: in vivo; conditions: single gene cassettes in Thorne soybean, T0 plants sprayed with Cmpd. 1
Text: SG1, SG10, SG20, and SG22 were transformed as single gene cassettes into Thorne soybean plants and T0 plants were sprayed with Cmpd. 1 to measure herbicide tolerance. Each iteration of mutant identified in the bacterial screening assay performed better than the previous version (SG20>SG10>SG1).

Cmpd. 1 = experiment: HitMix bacterial competition experiment against Cmpd. 1; format: cell-based; conditions: plasmid DNA of SG1, SG10 and reference proteins mixed, transformed and screened against Cmpd. 1
Text: Screening variant libraries: In order to select improved variants, libraries of varying complexity were constructed in the pRANGER backbone. The first significant library to be screened was a multi-site saturation library, in which amino acid positions 338, 339, 340, and 341 were randomized with NNK codons, which use 32 codons to encode all 20 amino acids, for a theoretical complexity of 1.6×10^5 unique protein variants. Approximately 500,000 variants were transformed and screened in a bacterial competition assay against 5 mM Cmpd. 1 (2-chloro-3-(methylsulfanyl)-N-(1-methyl-1H-tetrazol-5-yl)-4-(trifluoromethyl)benzamide), and surviving clones were sequenced. After 3 rounds of subculturing, a single sequence was found and designated SG1 (Table 1). This sequence was used as the base gene for a 2nd generation library saturating positions 268, 270, 340, and 345. Similarly, these libraries were screened and SG10 (Table 1) was obtained from sequencing the surviving cultures at high concentrations of Cmpd. 1. To confirm that the hits had improved tolerance relative to K610, a “HitMix” competition experiment was carried out. Briefly, the plasmid DNA encoding each variant to be competed were mixed together in an Eppendorf tube, and then the DNA mixture was transformed and screened against Cmpd. 1 as previously described.

B1: SG10: HPPD variant, SEQ ID NO:3; P268D, E335P, G336D, N337S, K339Y, A340R, I345M (protein)
chain: MADLYENPMGLMGFEFIEFASPTPGTLEPIFEIMGFTKVATHRSKNVHLYRQGEINLILNNEPNSIASYFAAEHGPSVCGMAFRVKDSQKAYNRALELGAQPIHIDTGPMELNLPAIKGIGGAPLYLIDRFGEGSSIYDIDFVYLEGVERNPVGAGLKVIDHLTHNVYRGRMVYWANFYEKLFNFREARYFDIKGEYTGLTSKAMSAPDGMIRIPLNEESSKGAGQIEEFLMQFNGEGIQHVAFLTDDLVKTWDALKKIGMRFMTAPDDTYYEMLEGRLPDHGEPVDQLQARGILLDGSSVEGDKRLLLQIFSETLMGPVFFEFIQRKGDDGFGPDSFYRLFESMERDQVRRGVLTAD
modifications: SG10 Mutant HPPD
notes: P268D, E335P, G336D, N337S, K339Y, A340R, I345M
brown color formation relative to HPPD(evo41) (E. coli): improved relative to HPPD(evo41)
brown color formation (E. coli): robust brown color formation
herbicide tolerance in planta (Thorne soybean plants): SG20>SG10>SG1
outcome of HitMix competition among variants (Cmpd. 1): emerged as the dominant sequence among all variants tested

B2: SG20: HPPD variant, SEQ ID NO:4; P268D, T270A, E335P, G336D, N337S, K339Y, A340R, S344Q, I345M (protein)
chain: B1 chain with T270A, S344Q
modifications: SG20 mutant HPPD
notes: P268D, T270A, E335P, G336D, N337S, K339Y, A340R, S344Q, I345M
herbicide tolerance in planta (Thorne soybean plants): SG20>SG10>SG1

B3: SG22: HPPD variant, SEQ ID NO:5; P268D, E335N, G336D, N337S, A340R, I345M (protein)
chain: B1 chain with P335N, Y339K
modifications: SG22 mutant HPPD
notes: P268D, E335N, G336D, N337S, A340R, I345M
herbicide tolerance in planta (Thorne soybean plants): performed similarly to SG1

B4: SG1: HPPD variant, SEQ ID NO:2; E335P, G336D, N337S, K339Y, A340R relative to SEQ ID NO:1 (protein)
chain: B1 chain with D268P, M345I
modifications: SG1 variant HPPD
brown color formation relative to HPPD(evo41) (E. coli): improved relative to HPPD(evo41)
brown color formation (E. coli): robust brown color formation
herbicide tolerance in planta (Thorne soybean plants): SG20>SG10>SG1
